Patent publication US20100286365

Columns and labels:
[1] = tested on: GLP-1(7-37)-GG-(S)-2,6-diamino-1-(thiazolidin-2-cyano-3-yl)hexan-1-one amide
[2] = tested on: GLP-1(7-37)-GG-(S)-2,6-diamino-1-(thiazolidin-3-yl)hexan-1-one amide
Chain of GLP-1(7-37)-GG-(S)-2,6-diamino-1-(thiazolidin-3-yl)hexan-1-one amide (chain, as listed by the source): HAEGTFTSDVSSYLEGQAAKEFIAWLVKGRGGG

Chain of GLP-1 (chain, as listed by the source): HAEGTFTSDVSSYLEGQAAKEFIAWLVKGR

For Recombinant DPP-IV, the “hydrolysis catalyzed by DPP-IV (mass spectrometry)” value [1] was “the expected product ions were not observed, indicating that these two compounds are DPP-IV resistant under the test conditions”, the “hydrolysis catalyzed by DPP-IV (mass spectrometry)” value [2] was “the expected product ions were not observed, indicating that these two compounds are DPP-IV resistant under the test conditions” and the “percentage of hydrolysis catalyzed by DPP-IV (mass spectrometry)” value (GLP-1) was “the DPP-IV catalyzed cleavage afforded the GLP-1 (9-36) product in 17% yield”.
